Test results from patent US9168297B2, “Regulation of skin pigmentation by neuregulin-1 (NRG-1)” (The United States of America, as Represented by the …, priority 2010, dated 2015).

Tests used:
Type in all cases: cell-based, human
HEM-LP melanocytes = assay: Melanin content assay (melanin/protein); conditions: NRG-1 50 ng/ml
Procedure: (§1) FIGS. 6A and 6B are bar graphs illustrating the effect of NRG-1 on the pigmentation of cultured human melanocytes. FIG. 6A) Lightly-pigmented (HEM-LP) and FIG. 6B) Darkly-pigmented (HEM-DP) melanocytes were treated with or without NRG-1 (50 ng/ml) for 1, 3, 5 or 9 days and proteins were extracted from each sample. After centrifugation at 10,000 g for 15 minutes, precipitates were analyzed for melanin content, and the supernatants were analyzed for protein content. Results are the average of three studies±SD; statistically significant differences are indicated.
(§2) Melanin contents were determined by dissolving cell pellets overnight at room temperature in 200 μl 1 N NaOH, and melanin concentrations were quantitated by absorbance at 405 nm in a SpectraMax 250 ELISA reader (Molecular Devices) using a standard curve generated from synthetic melanin (Sigma-Aldrich, St. Louis, Mo.). Melanin content is expressed as μg melanin per μg protein. Each study was repeated at least three times.
(§3) The effects of NRG-1 on the pigmentation of human melanocytes were also examined. […] However, on day 9, when the cells had reached confluence, the pigmentation level of NRG-1-treated HEM-LP melanocytes was about 35% higher than the control (FIG. 6A).

HEM-DP melanocytes = assay: Melanin content assay (melanin/protein); conditions: NRG-1 50 ng/ml
Procedure: as §1
FIGS. 9A and 9B are digital images illustrating the effect of pan-ERBB inhibitors on NRG-1 action on human melanocytes and MelanoDerms. FIG. 9A) HEM-DP melanocytes were treated for 9 days with 50 ng/ml NRG-1 in the presence of C39 (0.5 μM) or CI-1033 (2 μM) or vehicle (DMSO) alone. The results are the averages of 3 independent studies±SD. FIG. 9B) Dark MelanoDerms were treated for 9 days with 50 ng/ml NRG-1 in the presence of C39 (0.5 μM) or CI-1033 (2 μM) or vehicle (DMSO) alone. L values shown are the average of 3 spots measured in the center of each Melanoderm.
as §2, §3
The EGF domain of NRG-1 can activate the NRG-1 receptors. Two exemplary EGF domains of NRG-1 were aligned (SEQ ID NOs: 9 and 10) and 5 different […] peptides within these two sequences were designed (FIG. 12). Darkly-pigmented human epidermal melanocytes (HEM-DP) were treated with each of the […] peptides (100 nM) or the commercially available rhNRG-1 (6.25 nM) or the vehicle only (0.1% BSA in PBS) every other day for 7 days.
In particular, HEM-DP were treated with each of the 8-mer peptides (WC-6, […], amino acids 3-10 of SEQ ID NO: 10; WC-7, […], amino acids 8-15 of SEQ ID NO: 10; WC-8, […], amino acids 12-19 of SEQ ID NO: 10; WC-9, […], amino acids 16-23 of SEQ ID NO: 10; WC-10, […], amino acids 20-27 of SEQ ID NO: 10; 100 nM) or the full length EGF domain of NRG-1 (WC-11, SEQ ID NO: 10, 100 nM) or the commercially available rhNRG-1 (SEQ ID NO: 11, 6.25 nM) or vehicle only (0.1% BSA in PBS) every day for 9 days.

ERBB2 mRNA = ERBB2 mRNA level by RT-PCR in melanocytes; conditions: HEM-LP and HEM-DP, NRG-1 50 ng/ml, 1 day, vs controls
Procedure: FIGS. 8A and 8B are digital images illustrating the mechanism of ERBB2 abrogation after NRG-1 treatment. FIG. 8A) ERBB2 mRNA levels in HEM-LP and in HEM-DP melanocytes were detected by RT-PCR after treatment with or without NRG-1 (50 ng/ml) for 1 day. FIG. 8B) MG132 (120 nM) was added to the melanocyte culture medium to inhibit proteasomal degradation during treatment of HEM-LP and HEM-DP melanocytes with or without NRG-1 (50 ng/ml). Proteins were extracted for each sample, and ERBB2 levels were detected by western blotting. Results are representative of three studies.
Total RNAs were isolated from cells using an RNeasy mini kit (Qiagen, Valencia, Calif.), and 500 ng RNA of each sample was used for reverse transcription. […]
Whether the decrease in ERBB2 level elicited by NRG-1 was due to transcriptional regulation or to proteasomal degradation was further explored. When ERBB2 mRNA levels were measured after 1 day of treatment with NRG-1, NRG-1 treated cells and controls were similar both for HEM-LP and for HEM-DP melanocytes (FIG. 8A) despite the marked decrease in ERBB2 protein expression noted above.

B1: NRG-1: commercially available recombinant human neuregulin-1 (rhNRG-1-β1, R&D Systems), SEQ ID NO: 11 (protein)
chain: TSHLVKCAEKEKTFCVNGGECFMVKDLSNPSRYLCKCPNEFTGDRCQNYVMASFYKHLGIEFMEAEELYQK
Pigmentation level higher than the control (HEM-LP melanocytes; day 9, confluent): about 35%
Level of pigmentation (melanin/protein) (HEM-LP melanocytes; days 1 through 5, subconfluent, vs control): not significantly different
Melanin content, NRG-1 alone (HEM-DP melanocytes; 9 days, vehicle DMSO): stimulated melanin content
Pigmentation level (HEM-DP melanocytes; day 9, vs controls): remained higher
Pigmentation level (HEM-DP melanocytes; starting at day 5, subconfluent, vs controls): higher than the controls
ERBB2 mRNA levels (ERBB2 mRNA): similar
